The record followed here is the supplement of paper PMC9112550, “Optimization of the antimicrobial peptide Bac7 by deep mutational scanning” (BMC Biology, 2022).

In the data set the test system is Escherichia coli TOP10. Description: shrunken log2 fold change of peptide-encoding DNA abundance (4.5 h post-induction vs induction); higher = less antimicrobial activity (less host growth inhibition). The settings on record: time post-induction: 4.5 h; library: site-saturation at positions 5, 18, 19, 20.
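Further: peptides expressed intracellularly from a pBAD plasmid library in pooled LB shake-flask culture, induced with 0.3% L-arabinose, DNA abundance read by NGS, three biological replicates, DESeq2 with apeglm shrinkage.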

Take RRIRDRPPRLPRPRPRPFEMPRP: the “shrunken log2 fold change” value amounted to 0.182.
The same measure for RRIRFRPPRLPRPRPRPYYNPRP: -0.855; for RRIRQRPPRLPRPRPRPCCPPRP: -0.192.
With RRIRDRPPRLPRPRPRPRLHPRP, the “shrunken log2 fold change” value worked out at 0.11.
Consider RRIRYRPPRLPRPRPRPPWHPRP, for which the “shrunken log2 fold change” value is -0.507.
With RRIRLRPPRLPRPRPRPKHEPRP, the “shrunken log2 fold change” value is 0.053.
Under RRIRARPPRLPRPRPRPEPNPRP stands 1.16; under RRIRVRPPRLPRPRPRPIQNPRP, -0.121; under RRIRPRPPRLPRPRPRPQHQPRP, -0.226.
Under RRIRMRPPRLPRPRPRPNRGPRP stands 0.218; under RRIRCRPPRLPRPRPRPKIAPRP, 0.0102; under RRIRFRPPRLPRPRPRPHQEPRP, -0.0079.
The same measure for RRIRVRPPRLPRPRPRPNPWPRP: -0.0698; for RRIRSRPPRLPRPRPRPCAHPRP: -0.235.
Take RRIRFRPPRLPRPRPRPDKHPRP: the “shrunken log2 fold change” value was -0.478.
Consider RRIRCRPPRLPRPRPRPGYLPRP, for which the “shrunken log2 fold change” value was -0.561.
The same measure for RRIRHRPPRLPRPRPRPKDQPRP: -0.172; for RRIRDRPPRLPRPRPRPPLTPRP: 0.307.
Under RRIRCRPPRLPRPRPRPVNRPRP stands -0.0405.
The same measure for RRIRWRPPRLPRPRPRPSWMPRP: -0.0675; for RRIRPRPPRLPRPRPRPNYVPRP: -0.352; for RRIRDRPPRLPRPRPRPAHWPRP: 0.404.
With RRIRVRPPRLPRPRPRPTMMPRP, the “shrunken log2 fold change” value is -0.494.
The same measure for RRIRMRPPRLPRPRPRPIANPRP: 0.333; for RRIRHRPPRLPRPRPRPFHFPRP: -0.403; for RRIRFRPPRLPRPRPRPFMGPRP: -0.348.
Under RRIRKRPPRLPRPRPRPWSFPRP stands 0.121; under RRIRPRPPRLPRPRPRPMIVPRP, -1.14.
Under RRIRNRPPRLPRPRPRPQGAPRP stands -0.149.
Consider RRIRQRPPRLPRPRPRPCIQPRP, for which the “shrunken log2 fold change” value was -0.118.
Consider RRIRFRPPRLPRPRPRPNCLPRP, for which the “shrunken log2 fold change” value was -0.0273.
With RRIRKRPPRLPRPRPRPLHIPRP, the “shrunken log2 fold change” value was -0.172.
The same measure for RRIRKRPPRLPRPRPRPTPSPRP: 0.921.
On to RRIRKRPPRLPRPRPRPWIDPRP, for which the “shrunken log2 fold change” value is -0.00174.
RRIRCRPPRLPRPRPRPQATPRP: the “shrunken log2 fold change” value turned out to be 0.122.
The same measure for RRIRPRPPRLPRPRPRPAFRPRP: 0.211.
In the case of RRIRMRPPRLPRPRPRPRINPRP, the “shrunken log2 fold change” value amounted to 0.19.
Under RRIRWRPPRLPRPRPRPPGEPRP stands 0.625; under RRIRGRPPRLPRPRPRPFFNPRP, 0.186; under RRIRVRPPRLPRPRPRPEHLPRP, -0.171.
The same measure for RRIRSRPPRLPRPRPRPPNCPRP: 0.231.
The same measure for RRIRARPPRLPRPRPRPSFIPRP: -0.177; for RRIRDRPPRLPRPRPRPHSYPRP: -0.0739.
RRIRWRPPRLPRPRPRPCMEPRP: the “shrunken log2 fold change” value was -0.0563.
The same measure for RRIRNRPPRLPRPRPRPERKPRP: -0.016.
With RRIRKRPPRLPRPRPRPHCSPRP, the “shrunken log2 fold change” value came to 0.063.
Regarding RRIRGRPPRLPRPRPRPDIAPRP, the “shrunken log2 fold change” value came out at 0.782.
The same measure for RRIRGRPPRLPRPRPRPWDNPRP: -0.0364; for RRIRKRPPRLPRPRPRPRWYPRP: 0.275; for RRIRGRPPRLPRPRPRPCTEPRP: 0.509.
